Experimental data published in patent US20100136580A1 (Genentech, published 2010).

T1: GST-Dvl2PDZ fusion protein (human, UniProt O14641 248-364)
T1 construct: range 248-364; Made with the pGEX E. coli expression system; also called GST-PDZ fusion protein; not shown: glutathione S-transferase (GST) encoded by plasmid pGEX
T1 sequence (looked up): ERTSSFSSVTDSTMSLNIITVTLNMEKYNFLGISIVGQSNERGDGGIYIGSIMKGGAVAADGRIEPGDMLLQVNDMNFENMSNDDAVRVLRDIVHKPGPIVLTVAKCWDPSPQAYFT


biological target: T1, GST-Dvl2PDZ fusion protein; assay: phage display selection on GST-Dvl2PDZ
Protocol: The libraries were cycled through rounds of binding selection with a GST-Dvl2PDZ fusion protein coated on 96-well Maxisorp immunoplates as the capture target. Phage were propagated in E. coli XL1-blue with M13-KO7 helper phage and 10 μM IPTG. After four rounds of binding selection, individual phage clones were analyzed in a high-throughput phage ELISA, and positive clones were subjected to DNA sequence analysis.
We used decapeptide libraries fused to the C-terminus or N-terminus of the phage coat protein. The library contained NNK degenerate codons that encoded all 20 natural amino acids. The possible occurrence of amber stop codons in the degenerate codon also provided for the display of shorter peptides for the C-terminal library. Each library was cycled through four rounds of binding selection with immobilized GST-Dvl2PDZ fusion protein as the capture target.

| Binder | binding result |
| --- | --- |
| RTRFTCFGWF [SEQ ID NO 34] | binds |
| ELRWHDYGWIGGG [SEQ ID NO 40] | binds |
| TTEVWVDWPM [SEQ ID NO 161] | binds |
| RRMLWSDIPG [SEQ ID NO 142] | binds |
| GEMWVDGPCL [SEQ ID NO 151] | binds |
| YTFFGWF [SEQ ID NO 25] | binds |
| ITRYTFFGFF [SEQ ID NO 39] | binds |
| SIVLWSDIPS [SEQ ID NO 135] | binds |
| KFLGWF [SEQ ID NO 30] | binds |
| MTKWIWYGWL [SEQ ID NO 35] | binds |
| RSGHRFLGWF [SEQ ID NO 16] | binds |
| GLVLLWTDIP [SEQ ID NO 143] | binds |
| EMDLLWTDIP [SEQ ID NO 144] | binds |
| NKRYTVLGWF [SEQ ID NO 6] | binds |
| EVLWSDFPPM [SEQ ID NO 141] | binds |
| NRIPCLGGW [SEQ ID NO 27] | binds |
| SPRFTFLGWF [SEQ ID NO 28] | binds |
| RPFCTFLGWF [SEQ ID NO 37] | binds |
| TIWWDYGAI [SEQ ID NO 166] | binds |
| NEVWIDGPGQ [SEQ ID NO 157] | binds |
| NEVWIDGPGI [SEQ ID NO 159] | binds |
| ETWIDGPMYT [SEQ ID NO 153] | binds |
| TSSWKWYGWL [SEQ ID NO 8] | binds |

| Binder | binding result |
| --- | --- |
| SWKLLGFF [SEQ ID NO 17] | binds |
| LTEIWIDGWP [SEQ ID NO 154] | binds |
| LLFLKYYGWL [SEQ ID NO 20] | binds |
| QLVELWSDIP [SEQ ID NO 136] | binds |
| VPTWIDGPCVD [SEQ ID NO 158] | binds |
| PRIFKDYGMF [SEQ ID NO 9] | binds |
| SIVLWSDIPS [SEQ ID NO 140] | binds |
| RISWTFLGYF [SEQ ID NO 36] | binds |
| QTIWKDYGII [SEQ ID NO 165] | binds |
| YWTRTFYGFF [SEQ ID NO 10] | binds |
| SLLTIWSDIP [SEQ ID NO 146] | binds |
| NVFRFFGWL [SEQ ID NO 22] | binds |
| GEMWVDGPCL [SEQ ID NO 162] | binds |
| TWRVLGWF [SEQ ID NO 23] | binds |
| STRHYRTWWF [SEQ ID NO 21] | binds |
| SISYWFYGWL [SEQ ID NO 19] | binds |
| TVRWVFFGFF [SEQ ID NO 33] | binds |
| IVRWTLLGIF [SEQ ID NO 7] | binds |
| PEVWIDGPEI [SEQ ID NO 149] | binds |
| NWKWYGFF [SEQ ID NO 24] | binds |
| WVMLWSDLPA [SEQ ID NO 139] | binds |
| FWIYKYYGRF [SEQ ID NO 13] | binds |
| AEVWVDGPYI [SEQ ID NO 164] | binds |

Second part, the binder after the results:

| binding result | Binder |
| --- | --- |
| binds | DRIRFLGWF [SEQ ID NO 14] |
| binds | AEQWIDGPHL [SEQ ID NO 160] |
| binds | NRWRLLGWF [SEQ ID NO 11] |
| binds | SWYFKFYGWL [SEQ ID NO 38] |
| binds | NLERWSDIPM [SEQ ID NO 145] |
| binds | RIVSFFYGWL [SEQ ID NO 29] |
| binds | MMWIDGPLAS [SEQ ID NO 150] |
| binds | SWWNKCYGWF [SEQ ID NO 5] |
| binds | TPLYNYFGGL [SEQ ID NO 32] |
| binds | WVMLWSDLPA [SEQ ID NO 137] |
| binds | TSFLKGYGWL [SEQ ID NO 18] |
| binds | SHFKFFGWF [SEQ ID NO 26] |
| binds | VWGDSFEGRP [SEQ ID NO 148] |
| binds | TSWCKWYGWL [SEQ ID NO 12] |
| binds | EMITLWSDLP [SEQ ID NO 138] |
| binds | QAVYKNYGWIGGG [SEQ ID NO 41] |
| binds | YFFYGWF [SEQ ID NO 31] |
| binds | PEVWIDGPESG [SEQ ID NO 156] |
| binds | ELWIDGPHVM [SEQ ID NO 134] |
| binds | TWIDGPYLLQ [SEQ ID NO 147] |
| binds | AVRWLFLGWF [SEQ ID NO 15] |
| binds | ERWIDYGYIL [SEQ ID NO 152] |
